Results taken from the DeepSol protein solubility set.

Experiment: soluble on expression in E. coli; label from the status in PepcDB or PDB records

Sequence	soluble on expression in E. coli
SLNFRAEDLASGILRERVKVGASLADVDPMNIDKSVRFDSIGGLSHHIHALKEMVVFPLLYPEIFEKFKIQPPRGCLFYGPPGTGKTLVARALANECSQGDKKVAFFMRKGADCLSKWVGESERQLRLLFDQAYLMRPSIIFFDEIDGLAPVRSSRQDQIHSSIVSTLLALMDGLDNRGEIVVIGATNRLDSIDPALRRPGRFDREFLFNLPDQKARKHILQIHTRDWNPKLSDAFLGELAEKCVGYCGADIKALCTEAALIALRRRYPQIYASSHKLQLDVSSIVLSAQDFYHAMQNIVPASQRAVMSSGHALSPIIRPLLERSFNNILAVLQKVFPHAEISQSDKKEDIETLILEDSEDENALSIFETNCHSGSPKKQSSSAAIHKPYLHFTMSPYHQPTSYRPRLLLSGERGSGQTSHLAPALLHTLERFSVHRLDLPALYSVSAKTPEESCAQIFREARRTVPSIVYMPHIGDWWEAVSETVRATFLTLLQDIPSFSPIFLLSTSETMYSELPEEVKCIFRIQYEEVLYIQRPIEEDRRKFFQELILNQASMAPPRRKHAALCAMEVLPLALPSPPRQLSESEKSRMEDQEENTLRELRLFLRDVTKRLATDKRFNIFSKPVDIEEVSDYLEVIKEPMDLSTVITKIDKHNYLTAKDFLKDIDLICSNALEYNPDKDPGDKIIRHRACTLKDTAHAIIAAELDPEFNKLCEEIKEARI	soluble
SNAMPMTLDLQPGQRLARGVARHLRAHGFVSVEEFVPARGLRVDVMGLGPKGEIWVIECKSSRADFQADAKWQGYLEWCDRYFWAVDMEFPAELLPAESGLLIADAYDAEIVRMAPEQKLAPARRKVLIQKFATHAARRLQALRDPEGHGIFE	soluble
MGSDKIHHHHHHENLYFQGMRISANFDGGNIETISLANPDDIQLAIRPDAGGEFYQWFNFRFEATIGKTYTLNILNAGGASYLKGWEDYQAVASYDRQTWFRLPTEYKDGKLSISVELDCEAIQIAYFTPYSYERHLDLISAVQLHPLVSTEHLGLTLDGRDMTLVKVGDDDPSKKSIWITARQHPGETMAEWLVEGLLNQLLDNDCPTSKALLDKANFYIVPNMNPDGSVRGHLRTNAVGANLNREWQTPSLERSPEVYYVVNKMHETGVDLFYDVHGDEGLPYVFLAGCEGIPNYSDKLASLQQDFVAALSLASADFQTEFGYDKDEPGKANLTVACNWVANTFKCLSNTLEMPFKDNANLADPFQGWSPERSVYFGEASLIAMRAVIDKIGQ	soluble
MKNGEQNGPTTCTNCFTQTTPVWRRNPEGQPLCNACGLFLKLHGVVRPLSLKTDVIKKRNRNSANS	soluble
MSLKHTRPSIVNKRIDGRLTMSDNSKTRVVVGMSGGVDSSVTALLLKEQGYDVIGIFMKNWDDTDENGVCTATEDYKDVVAVADQIGIPYYSVNFEKEYWDRVFEYFLAEYRAGRTPNPDVMCNKEIKFKAFLDYAMTLGADYVATGHYARVARDEDGTVHMLRGVDNGKDQTYFLSQLSQEQLQKTMFPLGHLKKPEVRKLAEEAGLSTAKKKDSTGICFIGEKNFKNFLSNYLPAQPGRMMTVDGRDMGEHAGLMYYTIGQRGGLGIGGQHGGDNAPWFVVGKDLSKNILYVGQGFYHDSLMSTSLEASQVHFTREMPEEFTLECTAKFRYRQPDSKVTVHVKGDKAEVIFAEPQRAITPGQAVVFYDGEECLGGGLIDNAYRDGQVCQYIEGHHHHHH	soluble
MKESNSRREFLSQSGKMVTAAALFGTSVPLAHAAVAGTLNCEANNTMKITDPHYYLDNVLLETGFDYENGVAVQTRTARQTVEIQDGKIVALRENKLHPDATLPHYDAGGKLMLPTTRDMHIHLDKTFYGGPWRSLNRPAGTTIQDMIKLEQKMLPELQPYTQERAEKLIDLLQSKGTTIARSHCNIEPVSGLKNLQNLQAVLARRQAGFECEIVAFPQHGLLLSKSEPLMREAMQAGAHYVGGLDPTSVDGAMEKSLDTMFQIALDYDKGVDIHLHETTPAGVAAINYMVETVEKTPQLKGKLTISHAFALATLNEQQVDELANRMVVQQISIASTVPIGTLHMPLKQLHDKGVKVMTGTDSVIDHWSPYGLGDMLEKANLYAQLYIRPNEQNLSRSLFLATGDVLPLNEKGERVWPKAQDDASFVLVDASCSAEAVARISPRTATFHKGQLVWGSVAG	soluble
VNEIVVNPNATLDWQLALRQAAGKTDLARDMLQMLLDFLPEVRNKVEEQLVGENPEGLVDLIHKLHGSCGYSGVPRMKNLCQLIEQQLRSGTKEEDLEPELLELLDEMDNVAREASKIL	not soluble
MSVTVKRIIDNTVIVPKLPANEDPVEYPADYFRKSKEIPLYINTTKSLSDLRGYVYQGLKSGNVSIIHVNSYLYGALKDIRGKLDKDWSSFGINIGKAGDTIGIFDLVSLKALDGVLPDGVSDASRTSADDKWLPLYLLGLYRVGRTQMPEYRKKLMDGLTNQCKMINEQFEPLVPEGRDIFDVWGNDSNYTKIVAAVDMFFHMFKKHECASFRYGTIVSRFKDCAALATFGHLCKITGMSTEDVTTWILNREVADEMVQMMLPGQEIDKADSYMPYLIDFGLSSKSPYSSVKNPAFHFWGQLTALLLRSTRARNARQPDDIEYTSLTTAGLLYAYAVGSSADLAQQFCVGDNKYTPDDSTGGLTTNAPPQGRDVVEWLGWFEDQNRKPTPDMMQYAKRAVMSLQGLREKTIGKYAKSEFDK	soluble
MAHHHHHHSLALIVKIGGSIQKDEKDYELIVKKIQDFSKKSDKIIVVTSAIKNVTNELISATSNTDNSPNIVTEIYERHIKLLSKLADGKEFENSFKDISRLSDELFRVAWSIRVLDEVTPRVRDYILSFGERMATLLLSAILRSNGIEAEGIITPPFLTDENYGEANVIEDLSKNEIANILENAKANVIVLPGFIGRTREGRYTTLGRGGSDYTATLLGKLVGVREVRLVTEVPGIMTGDPKKFENAKTISRLSLEEAIELSQLGAKRLHPRTFDPVFGSDMKVIVESLYEDGFTIINGECQNNDGLKGISLLDNAKLITVESTKIVGKIGSAARITNEAKEAGVNIISISQPASETTIQLVVDSLSANRLLSKLEEIRGTLVKDIEVNDINIVGIVGCGIKKKEISTKVLSIASSYDPLAISRGISNVSMTFIVNKDEGEKLAKELHKVIVSGEG	soluble
MVLAPFFEKAPSLIIAPDGSVLFECICNANPQPTVKWFLKDKELTGDRYVSKIKKMVGKFTVTLHIKNPTQEDQGVYKVTATNTHGSHSVEQQYIYKCTGKEVFKTLD	soluble
MSDNLPWKTWTPDDLAPPPAEFVPMVESEETIIEEAEPSLEQQLAQLQMQAHEQGYQAGIAEGRQQGHEQGYQEGLAQGLEQGLAEAKAQQAPIHARMQQLVSEFQTTLDALDSVIASRLMQMALEAARQVIGQTPTVDNSALIKQIQQLLQQEPLFSGKPQLRVHPDDLQRVDDMLGATLSLHGWRLRGDPTLHPGGCKVSADEGDLDASVATRWQELCRLAAPGVV	not soluble
GSPGISGGGGGILVGSKMAASIRERQTVALKRMLNFNVPHVKNSPGEPVWKVLIYDRFGQDIISPLLSVKELRDMGITLHLLLHSDRDPIRDVPAVYFVMPTEENIDRLCQDLRNQLYESYYLNFISAISRSKLEDIANAALAANAVTQVAKVFDQYLN	soluble
MSNGIVIIGSGFAARQLVKNIRKQDATIPLTLIAADSMDEYNKPDLSHVISQGQRADDLTRQTAGEFAEQFNLHLFPQTWVTDIDAEARVVKSQNNQWQYDKLVLATGASAFVPPVPGRELMLTLNSQQEYRACETQLRDARRVLIVGGGLIGSELAMDFCRAGKAVTLIDNAASILASLMPPEVSSRLQHRLTEMGVHLLLKSQLQGLEKTDSGIQATLDRQRNIEVDAVIAATGLRPETALARRAGLTINRGVCVDSYLQTSNTDIYALGDCAEINGQVLPFLQPIQLSAMVLAKNLLGNNTPLKLPAMLVKIKTPELPLHLAGETQRQDLRWQINTERQGMVARGVDDADQLRAFVVSEDRMKEAFGLLKTLPM	not soluble
MSKNDTEKILLDDLLFLQRAPYYESFSVYKIDSNKYIENENDSHIDRWLSMAVSGDDKTEAPTEFVIEPGGCLISLVVDRRLISLY	not soluble
MAHHHHHHMGQAFMEDQGNSLVVWGSTGRRLQFSMQDLKMPASLRDTPHFHFYEKQWDAVASFWFNRVLKESALQHLSVEAIVELIRQDISKRWERRREEQSIYKKRKRLLQRSGPAGTPSASVLLTNVTTLDGYQAATEMEQRDLVTALVERVEDVANDKVESWQVLVDDASEQRPAKAARVEGTAATSGEHPENDADGASDFDDRVAVVLKLSSKEKAATTIAHLHGSRFDDRRVLCRFWSE	soluble
